Our source for the adhesion force values is patent US20190125929A1.

Test [1] has as its target decellularized extracellular matrix derived from TSP2 KO mouse dermal fibroblasts (mouse). Put plainly: AFM adhesion force, vWF-conjugated 2 µm bead on decellularized ECM (n=5).
For test [2], the target named is decellularized extracellular matrix derived from wild-type (WT) mouse dermal fibroblasts (mouse). Described as above.

Regarding “Recombinant von Willebrand Factor (vWF) (Millipore), conjugated via EDC/NHS chemistry to a 2 µm carboxylated polystyrene bead on an AFM cantilever”, the adhesion force in test [1] was 16.5 pN; in test [2], 53.8 pN.
